The results in this text go back to patent US20200017552A1.

Experiment [1] deals with HA of Ft. Monmouth influenza virus (on virions) (influenza virus strain Ft. Monmouth). Description: cell-based or functional assay.
Experiment [2] addresses Influenza H1 hemagglutinin (HA), strain not stated for this experiment. Description: biolayer interferometry after incubation at 80 °C; HA strain not stated.

With mAb FI6v3 (antibody), the EC50 values for inhibition of viral replication in vitro in experiment [1] was 3.1 µg/mL. Also, in experiment [2], the reduction of binding activity after 1 hr at 80 °C came out at 74%.
